Experimental data taken from patent publication US20250250357A1 (NANJING ZAIMING PHARMACEUTICAL, published 2025).

What was measured:
[1] = molecular target: T1, human MSLN-hFc protein (Acro, Cat. No. MSN-H5253) (human, UniProt Q13421 296-580); experiment: ELISA on coated antigen, antibody 10 nM
T1 construct: the method names the coated protein as human MSLN-hFc (Acro); also called human MSLN full-length protein

[2] = molecular target: T2, human MSLN-R3 protein (human, UniProt Q13421 487-598); experiment: ELISA on coated antigen, antibody 10 nM
T2 construct: also called hMSLN-R3
T2 sequence (Q13421 495-606, form in doubt): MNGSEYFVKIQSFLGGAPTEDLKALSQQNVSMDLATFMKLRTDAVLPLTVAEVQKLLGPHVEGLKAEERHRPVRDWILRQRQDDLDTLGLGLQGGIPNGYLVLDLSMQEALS

[3] = molecular target: T1, human MSLN-hFc protein (Acro, Cat. No. …); experiment: ELISA on coated antigen, antibody 100 nM
[4] = molecular target: T1, human MSLN-hFc protein (Acro, Cat. No. …); experiment: ELISA on coated antigen, antibody 0.0001 nM
[5] = molecular target: T1, human MSLN-hFc protein (Acro, Cat. No. …); experiment: ELISA on coated antigen, antibody 0.01 nM
[6] = molecular target: T2, human MSLN-R3 protein; experiment: ELISA on coated antigen, antibody 0.001 nM
[7] = molecular target: T1, human MSLN-hFc protein (Acro, Cat. No. …); experiment: ELISA on coated antigen, antibody 0.001 nM
[8] = molecular target: T1, human MSLN-hFc protein (Acro, Cat. No. …); experiment: ELISA on coated antigen, antibody 1 nM
[9] = molecular target: T2, human MSLN-R3 protein; experiment: ELISA on coated antigen, antibody 0.1 nM
[10] = molecular target: T2, human MSLN-R3 protein; experiment: ELISA on coated antigen, antibody 0.0001 nM
[11] = molecular target: T1, human MSLN-hFc protein (Acro, Cat. No. …); experiment: ELISA on coated antigen, antibody 0.1 nM
[12] = molecular target: T2, human MSLN-R3 protein; experiment: ELISA on coated antigen, antibody 1 nM
[13] = molecular target: T2, human MSLN-R3 protein; experiment: ELISA on coated antigen, antibody 100 nM
[14] = molecular target: T2, human MSLN-R3 protein; experiment: ELISA on coated antigen, antibody 0.01 nM

T1 sequence (Q13421 other isoform, or with tags, fused parts or gaps limits assumed): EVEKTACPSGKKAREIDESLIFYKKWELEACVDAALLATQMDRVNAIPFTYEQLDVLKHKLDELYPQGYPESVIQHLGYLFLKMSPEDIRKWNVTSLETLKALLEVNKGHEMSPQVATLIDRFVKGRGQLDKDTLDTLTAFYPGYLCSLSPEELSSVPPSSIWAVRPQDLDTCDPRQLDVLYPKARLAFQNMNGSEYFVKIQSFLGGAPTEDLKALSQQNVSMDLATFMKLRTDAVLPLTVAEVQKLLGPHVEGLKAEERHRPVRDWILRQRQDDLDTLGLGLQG

Binder | OD450 [1] [OD450] | OD450 [2] [OD450] | OD450 [3] [OD450] | OD450 [4] [OD450] | OD450 [5] [OD450] | OD450 [6] [OD450] | OD450 [7] [OD450] | OD450 [8] [OD450] | OD450 [9] [OD450] | OD450 [10] [OD450] | OD450 [11] [OD450] | OD450 [12] [OD450] | OD450 [13] [OD450] | OD450 [14] [OD450]
F7.44.20-H7 (scFv, not shown: small tags and cut ends, also called S009-F7.44.20 humanized antibody VH1a + VL3) scFv: EVQLVQSGAEVKKPGASVKVSCKASGYTFTDYNMDWVRQAPGQGLEWMGDINPSTGGTIYNQKFQGRVTMTEDKSTSTVYMELSSLRSEDTAVYYCARRRIGTGYFDVWGQGTTVTVSSGGGGSGGGGSGGGGSEIVLTQSPATLSLSPGERATLSCSASSSVISSYLSWYQQKPGQSPRLLIYRTSNLASGIPARFSGSGSGTDYTLTISSLEPEDFAVYYCHQWSSFPYTFGGGTKVEIK | 2.99 | 2.23 | 3.05 | 0.04 | 0.06 | 0.04 | 0.04 | 1.74 | 0.16 | 0.05 | 0.3 | 1.18 | 2.1 | 0.05
F7.44.20-H15 (scFv, not shown: small tags and cut ends, also called S009-F7.44.20 humanized antibody VH2a + VL3) scFv: EVQLVQSGAEVKKPGASVKVSCKASGYTFTDYNMDWVRQAPGQGLEWMGDINPSTGGTIYNQKFSGRVTMTEDKSASTVYMELSSLRSEDTAVYYCARRRIGTGYFDVWGQGTTVTVSSGGGGSGGGGSGGGGSEIVLTQSPATLSLSPGERATLSCSASSSVISSYLSWYQQKPGQSPRLLIYRTSNLASGIPARFSGSGSGTDYTLTISSLEPEDFAVYYCHQWSSFPYTFGGGTKVEIK | 2.78 | 1.85 | 3.26 | 0.05 | 0.06 | 0.04 | 0.05 | 1.24 | 0.11 | 0.05 | 0.19 | 0.77 | 1.86 | 0.04
F7.44.20-H8 (scFv, not shown: small tags and cut ends, also called S009-F7.44.20 humanized antibody VH1a + VL4) scFv: EVQLVQSGAEVKKPGASVKVSCKASGYTFTDYNMDWVRQAPGQGLEWMGDINPSTGGTIYNQKFQGRVTMTEDKSTSTVYMELSSLRSEDTAVYYCARRRIGTGYFDVWGQGTTVTVSSGGGGSGGGGSGGGGSEIVLTQSPATLSLSPGERATLSCSASSSVISSYLSWYQQKPGSSPRLLIYRTSNLASGIPARFSGSGSGTDYTLTISSLEPEDFAVYYCHQWSSFPYTFGGGTKVEIK | 2.55 | 2.07 | 3.09 | 0.05 | 0.05 | 0.04 | 0.04 | 1.13 | 0.09 | 0.05 | 0.15 | 0.76 | 2.15 | 0.04
F7.44.20-H12 (scFv, not shown: small tags and cut ends, also called S009-F7.44.20 humanized antibody VH2 + VL4) scFv: EVQLVQSGAEVKKPGASVKVSCKASGYTFTDYNMDWVRQAPGQGLEWMGDINPSTGGTIYNQKFNGRVTMTEDKSASTVYMELSSLRSEDTAVYYCARRRIGTGYFDVWGQGTTVTVSSGGGGSGGGGSGGGGSEIVLTQSPATLSLSPGERATLSCSASSSVISSYLSWYQQKPGSSPRLLIYRTSNLASGIPARFSGSGSGTDYTLTISSLEPEDFAVYYCHQWSSFPYTFGGGTKVEIK | 2.92 | 2.12 | 3.17 | 0.05 | 0.06 | 0.05 | 0.05 | 1.02 | 0.09 | 0.05 | 0.16 | 0.6 | 2.44 | 0.05
F7.44.20-H4 (scFv, not shown: small tags and cut ends, also called S009-F7.44.20 humanized antibody VH1 + VL4) scFv: EVQLVQSGAEVKKPGASVKVSCKASGYTFTDYNMDWVRQAPGQGLEWMGDINPSTGGTIYNQKFNGRVTMTEDKSTSTVYMELSSLRSEDTAVYYCARRRIGTGYFDVWGQGTTVTVSSGGGGSGGGGSGGGGSEIVLTQSPATLSLSPGERATLSCSASSSVISSYLSWYQQKPGSSPRLLIYRTSNLASGIPARFSGSGSGTDYTLTISSLEPEDFAVYYCHQWSSFPYTFGGGTKVEIK | 2.99 | 2.11 | 3.2 | 0.05 | 0.06 | 0.04 | 0.04 | 1.14 | 0.1 | 0.05 | 0.19 | 0.74 | 2.32 | 0.04
